# T1: Lrp (Dickeya oryzae EC1, UniProt A0AB39ITC9 1-164)
# T1 sequence: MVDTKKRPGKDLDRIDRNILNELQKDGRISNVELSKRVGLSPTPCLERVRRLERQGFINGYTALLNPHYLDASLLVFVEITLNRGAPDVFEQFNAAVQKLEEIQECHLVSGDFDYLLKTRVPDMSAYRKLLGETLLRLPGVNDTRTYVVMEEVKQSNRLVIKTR
# B1: PzmsA(24)PM (dsDNA)
# DNA 1: GTGTGAAAAGAGTGAGAGACCACG
# DNA 2: CGTGGTCTCTCACTCTTTTCACAC
# B2: PzmsA(24) (dsDNA)
# DNA 1: GTGTAATTATGGGCGTGCTCCGGG
# DNA 2: CCCGGAGCACGCCCATAATTACAC
# Columns and labels:
# Lrp [1] = target: T1, Lrp; assay: EMSA; conditions: protein: recombinant; tags: GST tag removed with PreScission protease (pGEX-6P-1, BamHI/EcoRI-site primers; N-terminal vector residues may remain); chain copies: 2
# Lrp [2] = target: T1, Lrp; assay: EMSA; 1 uM Lrp, 20 fmol probe; conditions: protein: recombinant; tags: GST tag removed with PreScission protease (pGEX-6P-1, BamHI/EcoRI-site primers; N-terminal vector residues may remain); chain copies: 2; label: biotin
binder,measurement,setting,value
B1,binding result,Lrp [1],no binding
B2,binding result,Lrp [2],binds

# — PMC12145271, “A Lrp/AsnC Family Transcriptional Regulator Lrp Is Essential for the Pathogenicity of Dickeya oryzae”
